From PMC5985169, “Somatostatin Decorated Quantum Dots for Targeting of Somatostatin Receptors” (Iranian Journal of Pharmaceutical Research : IJPR, 2018)

Assay: HPLC analysis of SST before and after thiolation (elution time related to hydrophilicity)
Type: physicochemical
Conditions: chromatographic, C18 reversed-phase analytical column, linear gradient 26% to 39% acetonitrile in water with 0.1% TFA, 1.0 mL/min, detection at 274 nm
Method: Then, thiolated-SST labeled with (1.5 eq) eosin-5-maleimide. Eosin-5-maleimide solution was mixed with thiolated-SST, the reactants were stirred at 600rpm for 30 min. The products were purified by running in Sephadex G-25 mini-column, and identified by thin layer chromatography. HPLC analysis was performed for SST using a linear gradient from 26% to 39% acetonitrile in water, with 0.1% TFA as mobile phase at a flow rate of 1.0 mL/min using a C18-reversed phase analytical column.
The thiolation of SST was investigated using HPLC. […] The single peak eluted at about 19 min corresponded to SST. Thiolated-SST eluted at 18.6 min. The signal consists of multiple neighbouring peaks, these neighbouring peaks appeared between 20.5 and 23 min (Figure 7) and could be related to SST in isomerized form. Neither thiolated-SST nor SST degradation products were detected. Thiolated-SST eluted earlier than SST which is related to the increase in hydrophilicity.
Figure 7 HPLC chromatographs of SST reacted with Traut´s reagent. Signals were detected at 274 nm. Single peak eluted at about 19 min corresponded to SST. Thiolated-SST eluted at 18.6 min.

Substance | HPLC elution time (earlier elution related to increase in hydrophilicity)
Thiolated-SST: SST thiolated using Traut's reagent | 18.6 min
Somatostatin acetate [SST] | about 19 min
